Measurements published in paper PMC2094072.

What was measured:
Assay in all cases: fluorescence anisotropy
BLM642-1290 R979/982A = BLM642-1290 R979/982A (UniProt P54132 642-1290, R979A;R982A)
BLM642-1290 = BLM642-1290 (UniProt P54132 642-1290)
BLM642-1290 R959A = BLM642-1290 R959A (UniProt P54132 642-1290, R959A)
BLM642-1290 H798A = BLM642-1290 H798A (UniProt P54132 642-1290, H798A)
BLM642-1290 R979A = BLM642-1290 R979A (UniProt P54132 642-1290, R979A)
BLM642-1290 Q975V = BLM642-1290 Q975V (UniProt P54132 642-1290, Q975V)
Chain of BLM642-1290 Q975V (P54132 642-1290 Q975V): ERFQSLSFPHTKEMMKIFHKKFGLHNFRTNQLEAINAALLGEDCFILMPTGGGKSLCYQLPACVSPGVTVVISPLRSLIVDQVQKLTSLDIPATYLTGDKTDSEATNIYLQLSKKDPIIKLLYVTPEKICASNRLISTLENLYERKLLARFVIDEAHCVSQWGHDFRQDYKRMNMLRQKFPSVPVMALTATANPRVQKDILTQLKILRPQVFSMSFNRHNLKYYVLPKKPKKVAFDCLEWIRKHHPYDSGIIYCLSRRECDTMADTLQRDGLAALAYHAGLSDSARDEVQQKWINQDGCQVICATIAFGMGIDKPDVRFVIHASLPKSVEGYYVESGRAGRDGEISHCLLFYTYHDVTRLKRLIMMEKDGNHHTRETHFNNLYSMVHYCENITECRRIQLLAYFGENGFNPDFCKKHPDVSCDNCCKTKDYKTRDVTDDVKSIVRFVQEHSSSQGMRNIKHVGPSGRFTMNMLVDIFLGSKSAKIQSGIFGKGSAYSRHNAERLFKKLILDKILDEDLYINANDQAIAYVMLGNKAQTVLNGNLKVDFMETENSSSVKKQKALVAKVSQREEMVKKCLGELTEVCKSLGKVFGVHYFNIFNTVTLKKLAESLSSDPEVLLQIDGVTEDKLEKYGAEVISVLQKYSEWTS

BLM642-1290 R982A = BLM642-1290 R982A (UniProt P54132 642-1290, R982A)
Chain of BLM642-1290 R982A (P54132 642-1290 R982A): as the sequence (P54132 642-1290 Q975V) above, with V334Q, R341A counted along it

Chain of BLM642-1290 R959A (P54132 642-1290 R959A): as the sequence (P54132 642-1290 Q975V) above, with R318A, V334Q counted along it
Chain of BLM642-1290 R979A (P54132 642-1290 R979A): as the sequence (P54132 642-1290 Q975V) above, with V334Q, R338A counted along it
Chain of BLM642-1290 H798A (P54132 642-1290 H798A): as the sequence (P54132 642-1290 Q975V) above, with H157A, V334Q counted along it
Chain of BLM642-1290 R979/982A (P54132 642-1290 R979A/R982A): as the sequence (P54132 642-1290 Q975V) above, with V334Q, R338A, R341A counted along it
Chain of BLM642-1290 (P54132 642-1290): as the sequence (P54132 642-1290 Q975V) above, with V334Q counted along it

GGGTTAGGGTTAGGGTTAGGG (ssDNA) [oligonucleotide D (21-mer)]
Kd (BLM642-1290 R979/982A): 1.32 ± 0.49 nM | Kd (BLM642-1290): 1.11 ± 0.11 nM | Kd (BLM642-1290 R959A): 4.15 ± 0.4 nM | Kd (BLM642-1290 H798A): 5.03 ± 0.55 nM | Kd (BLM642-1290 R979A): 1.91 ± 0.46 nM | Kd (BLM642-1290 Q975V): 3.31 ± 0.4 nM | Kd (BLM642-1290 R982A): 2.13 ± 0.32 nM
